In this data set the target is T1, DinG (Escherichia coli, UniProt P27296 1-716).
T1 sequence: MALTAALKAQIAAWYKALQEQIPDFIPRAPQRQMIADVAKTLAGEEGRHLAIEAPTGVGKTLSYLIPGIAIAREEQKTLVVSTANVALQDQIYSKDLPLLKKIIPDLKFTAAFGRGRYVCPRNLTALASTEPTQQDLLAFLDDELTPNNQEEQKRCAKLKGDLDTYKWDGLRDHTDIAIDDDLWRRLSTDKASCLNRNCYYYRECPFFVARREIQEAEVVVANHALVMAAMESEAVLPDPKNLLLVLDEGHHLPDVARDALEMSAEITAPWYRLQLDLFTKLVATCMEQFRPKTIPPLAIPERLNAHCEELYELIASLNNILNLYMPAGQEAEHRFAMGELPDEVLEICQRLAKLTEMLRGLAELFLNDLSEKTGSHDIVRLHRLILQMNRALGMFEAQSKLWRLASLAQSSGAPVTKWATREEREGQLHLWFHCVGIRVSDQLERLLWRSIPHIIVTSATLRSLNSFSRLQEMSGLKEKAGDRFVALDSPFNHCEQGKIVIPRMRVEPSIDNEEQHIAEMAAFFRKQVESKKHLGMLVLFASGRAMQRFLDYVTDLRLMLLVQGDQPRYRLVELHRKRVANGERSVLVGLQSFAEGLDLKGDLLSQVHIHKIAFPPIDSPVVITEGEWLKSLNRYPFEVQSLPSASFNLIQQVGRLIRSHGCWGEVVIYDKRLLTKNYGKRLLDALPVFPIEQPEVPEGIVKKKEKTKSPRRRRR
Kind of data set: X-ray crystallography (2.5 A); binary complex, no nucleotide; MST: 25 mM Tris pH 8.0, 200 mM NaCl, 1 mM DTT, 5% glycerol, 25 C, 10 nM ssDNA. The note with it: protein: recombinant; tags: His6-MBP-TEV N-terminal, removed by TEV.

The record followed here is article PMC6300356, “DNA translocation mechanism of an XPD family helicase”.

B1: dT12 (12 base oligo-dT) (ssDNA)
DNA: TTTTTTTTTTTT
Take B1: the binding result is reported as “binds”.
